This passage reports stoichiometry N results from paper PMC9974498.

Common to all, as to assay: crystal structure
Experiment [1] deals with recombinant C-terminal StrepII-tagged ScSbtB variant C105A+C110A (Synechocystis sp. PCC 6803).
In experiment [2] the target is recombinant C-terminal StrepII-tagged SbtB from Synechocystis sp. PCC 6803 (ScSbtB), wild type (Synechocystis sp. PCC 6803).
The target in experiment [3] is recombinant C-terminal StrepII-tagged ScSbtB variant Δ104 (R-loop truncated from position 104 on) (Synechocystis sp. PCC 6803).

As to “recombinant C-terminal StrepII-tagged ScSbtB variant C105A+C110A (natural protein)”, the stoichiometry N – broadly, a count of units in the complex or per binding partner – in experiment [1] was 3.
For the substance “recombinant C-terminal StrepII-tagged SbtB from Synechocystis sp. PCC 6803 (ScSbtB), wild type (natural protein)”, in experiment [2], the stoichiometry N was 3.
Regarding “recombinant C-terminal StrepII-tagged ScSbtB variant Δ104 (R-loop truncated from position 104 on) (domain or fragment)”, the stoichiometry N in experiment [3] amounted to 3.
